US20170240651A1 (Sanofi, published 2017)

T1: AGR2 deletion mutant lacking the epitope … (UniProt O95994 21-175)
T1 construct: Made from the pcDNA3-AGR2-His eukaryotic expression plasmid by deletion mutagenesis; also called the mutated AGR2 protein; not shown: His tag of the pcDNA3-AGR2-His plasmid
T1 sequence (looked up): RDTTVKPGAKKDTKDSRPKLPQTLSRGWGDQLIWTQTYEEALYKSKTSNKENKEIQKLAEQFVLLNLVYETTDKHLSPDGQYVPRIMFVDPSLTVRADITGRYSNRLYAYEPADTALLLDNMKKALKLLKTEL

T2: human anterior gradient protein 2 (AGR2) (human, UniProt O95994 21-175)
T2 chain: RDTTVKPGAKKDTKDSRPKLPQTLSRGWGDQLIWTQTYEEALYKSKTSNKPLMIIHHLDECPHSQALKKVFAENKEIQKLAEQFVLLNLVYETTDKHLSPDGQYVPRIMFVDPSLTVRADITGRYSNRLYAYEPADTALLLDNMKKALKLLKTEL

T3: human anterior gradient protein 2 (AGR2) (human, UniProt O95994 21-175, limits assumed)
T3 construct: also called hAG-2; antigen AGR2
T3 sequence (looked up): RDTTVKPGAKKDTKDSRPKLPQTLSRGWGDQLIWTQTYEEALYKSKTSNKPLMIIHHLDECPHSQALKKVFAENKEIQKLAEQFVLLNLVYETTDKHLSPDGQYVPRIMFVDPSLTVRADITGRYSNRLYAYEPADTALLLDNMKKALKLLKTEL


Legend:
[1] = target: T1, AGR2 deletion mutant lacking the …; assay: western blot
Experimental: The amino sequence of the monoclonal antibody corresponding to the epitopes of the antigen AGR2 was determined (see FIG. 23). The procedure was as followed: RNA was extracted from MCF cells. mRNA of AGR2 was obtained by PCR and reverse transcribed to obtain cDNA. The pcDNA3-AGR2-His eukaryotic expression plasmid was constructed and AGR2 was subjected to mutation by deletion. The upstream primer for the mutation was 5′-[…]-3′, and the downstream primer was 5′-[…]-3′. Such a mutation led to the deletion of the epitope […]. […] Then AGR2 was subjected to point mutation. The upstream primer for the mutation was 5′-[…]-3′, and the downstream primer was 5′-[…]-3′, wherein the “C” in the PDI active site “CXXS” was mutate to “S”. […] It was determined that the monoclonal antibody specifically bound to the epitope “[…]”, and may inhibit the PDI activity.

[2] = target: T2, human anterior gradient protein 2 (AGR2); assay: competitive ELISA
[3] = target: T3, human anterior gradient protein 2 (AGR2); assay: competitive ELISA, AGR2 coated, antibody pre-incubated with soluble antigen
Experimental: The generated humanized antibody 18A4Hu1 was subjected to an affinity analysis and compared with the murine 18A4 antibody. Specifically, 3 ng/μl antigen AGR2 was used for coating the 96 well ELISA plates at 100 μl per well and blocked with blocking solution. Antibodies at 0.1 ng/μl were mixed 1:1 with antigens of different concentrations and incubated at 37° C. overnight, wherein the antigen concentration was serially diluted from 1000 nM. 100 μl incubated mixture was separately added into different ELISA plates and incubated at 37° C. for 1 hour. After washing the ELISA plates, the HRP-labeled secondary antibodies against human or mouse were added and incubated at 37° C. for 1 hour. Color development solutions A and B were added, each at 80 μl, and color was allowed to develop at 37° C. for 30 min. The reaction was stopped by adding 50 μl stopping solution and absorbance was determined at OD 450. Affinity plate was depicted and the affinities of the antibodies were calculated.

Binder	binding result [1]	Kd [2] [nM]	binding result [3]
murine anti-human AGR2 protein monoclonal antibody 18A4 (antibody, V domains shown, also called murine 18A4; the monoclonal antibody) VH: EVQLQQFGAELVKPGASVKISCKASAYTFTDYNMDWVKQSHGKSLEWIGDINPNYDTTSYNQKFKGKATLTVDKSSSTAYMELRSLTSEDTAVYYCARSMMGYGSPMDYWGQGTSVTVSS VL: DIVLTQSPASLTVSLGQRATISCRASKSVSTSGYSYMHWYQRKPGQPPKLLIYLASNLESGVPARFSGSGSGTDFTLNIHPVEGEDAATYYCQHIRELPRTFGGGTKLEIK	no binding	1.7	–
humanized antibody 18A4Hu1 (antibody, V domains shown) VH: QVQLVQSGAEVKKPGASVKVSCKASGYTFTDYNMDWVRQAPGQGLEWIGDINPNYDTTSYNQKFKGKATLTVDKSTSTAYMELSSLRSEDTAVYYCARSMMGYGSPMDYWGQGTLVTVSS VL: EIVLTQSPATLSLSPGERATLSCRASKSVSTSGYSYMHWYQQKPGQAPRLLIYLASNLESGIPARFSGSGSGTDFTLTISRLEPEDFAVYYCQHIRELPRTFGGGTKLEIK	–	3.02	binds
